Results from publication PMC5171940.
One block for each binder: values may come before it.

Molecular target: biotinylated Aβ immobilised for the SPR of CreneFab alanine mutants
Experiment: SPR; BIAcore T200, single-cycle kinetics; biotinylated Aβ (11–28 or oligomeric 1–42) captured on streptavidin-coupled CM5 chip (100–200 RU); antibody as analyte 0.8–500 nM in HBS-P pH 7.4, 0.15 M NaCl; one-to-one Langmuir model

- fold reduction of affinity against wild-type CreneFab: 1.8 fold
B1: CreneFab Ser52a alanine mutant (Fab, V domains shown)
VH: EVQLVESGGGLVQPGGSLRLSCAASGFTFSSYGMSWVRQAPGKGLELVASINANGGSTYYPDSVKGRFTISRDNAKNSLYLQMNSLRAEDTAVYYCASGDYWGQGTLVTVSS
VL: DIVMTQSPLSLPVTPGEPASISCRSSQSLVYSNGDTYLHWYLQKPGQSPQLLIYKVSNRFSGVPDRFSGSGSGTDFTLKISRVEAEDVGVYYCSQSTHVPWTFGQGTKVEIK

- fold reduction of affinity against wild-type CreneFab: 2.6 fold
B2: CreneFab with deletion of Glu1^HC and Val2^HC (Fab, V domains shown)
VH: QLVESGGGLVQPGGSLRLSCAASGFTFSSYGMSWVRQAPGKGLELVASINSNGGSTYYPDSVKGRFTISRDNAKNSLYLQMNSLRAEDTAVYYCASGDYWGQGTLVTVSS
VL: B1 VL
